Measured values: US20220195407, “OPTIMIZATION OF ENGINEERED MEGANUCLEASES FOR RECOGNITION SEQUENCES” (Precision BioSciences, Inc., published 2022)

What was measured:
Experiment in all cases: cell_activity; CHO iGFFP reporter
LOX 3-4 m.111 = target: T1, LOX 3-4 m.111 (artificial (I-CreI derived))
T1 chain: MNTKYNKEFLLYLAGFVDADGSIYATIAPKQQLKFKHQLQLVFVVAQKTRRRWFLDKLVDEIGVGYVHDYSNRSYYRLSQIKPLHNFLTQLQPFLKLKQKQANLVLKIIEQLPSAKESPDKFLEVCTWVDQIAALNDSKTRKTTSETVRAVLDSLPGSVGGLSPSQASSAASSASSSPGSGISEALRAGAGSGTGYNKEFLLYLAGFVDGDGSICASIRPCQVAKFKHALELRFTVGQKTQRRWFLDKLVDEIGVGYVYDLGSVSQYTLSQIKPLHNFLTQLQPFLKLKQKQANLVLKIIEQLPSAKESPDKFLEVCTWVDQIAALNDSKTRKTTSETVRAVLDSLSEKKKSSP
From the text: (§1) A CHO cell reporter system (see WO/2012/167192, FIG. 3) was used to determine whether the engineered meganucleases generated in these studies could recognize and cleave the modified LOX 3-4 recognition sequences in Table 87. To perform the assay, a pair of CHO cell reporter lines were produced, which carried a non-functional Green Fluorescent Protein (GFP) gene expression cassette integrated into the genome of the cell. The GFP gene in each cell line was interrupted by a pair of recognition sequences such that intracellular cleavage of either recognition sequence by a meganuclease would stimulate a homologous recombination event resulting in a functional GFP gene. In both cell lines, one of the recognition sequences was derived from the LOX 3-4 recognition sequence (i.e., those sequences disclosed in Table 87), and the second recognition sequence was specifically recognized by a control meganuclease called “CHO 23/24.” CHO reporter cells comprising a recognition sequence derived from the LOX 3-4 recognition sequence and the CHO 23/24 recognition sequence are referred to herein as “test cells.”
(§2) Novel engineered meganucleases derived from the LOX 3-4x.109 meganuclease were prepared by making amino acid substitutions at one or more positions in the first subunit. These engineered meganucleases were then evaluated for cleavage of the LOX 3-4 recognition sequence modified to have a GTAG center sequence (SEQ ID NO: 390) in the CHO reporter assay according to Example 1. Novel meganucleases which were modified to comprise the residues recited in the tables below were capable of cleaving the LOX 3-4 recognition sequence having a GTAG four base pair center sequence.

LOX 3-4 m.97 = target: T2, LOX 3-4 m.97 (artificial (I-CreI derived))
T2 chain: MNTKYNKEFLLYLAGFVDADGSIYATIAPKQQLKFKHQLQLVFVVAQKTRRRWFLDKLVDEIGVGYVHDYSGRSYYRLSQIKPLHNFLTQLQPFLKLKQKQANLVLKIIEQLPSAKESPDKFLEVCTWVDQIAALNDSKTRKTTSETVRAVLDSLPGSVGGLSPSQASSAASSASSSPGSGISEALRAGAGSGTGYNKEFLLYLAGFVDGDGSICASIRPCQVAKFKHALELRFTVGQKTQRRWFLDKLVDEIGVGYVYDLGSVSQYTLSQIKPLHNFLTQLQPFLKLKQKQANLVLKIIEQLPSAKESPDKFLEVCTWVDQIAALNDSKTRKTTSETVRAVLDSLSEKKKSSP
From the text: as §1, §2

LOX 3-4 m.108 = target: T3, LOX 3-4 m.108 (artificial (I-CreI derived))
T3 chain: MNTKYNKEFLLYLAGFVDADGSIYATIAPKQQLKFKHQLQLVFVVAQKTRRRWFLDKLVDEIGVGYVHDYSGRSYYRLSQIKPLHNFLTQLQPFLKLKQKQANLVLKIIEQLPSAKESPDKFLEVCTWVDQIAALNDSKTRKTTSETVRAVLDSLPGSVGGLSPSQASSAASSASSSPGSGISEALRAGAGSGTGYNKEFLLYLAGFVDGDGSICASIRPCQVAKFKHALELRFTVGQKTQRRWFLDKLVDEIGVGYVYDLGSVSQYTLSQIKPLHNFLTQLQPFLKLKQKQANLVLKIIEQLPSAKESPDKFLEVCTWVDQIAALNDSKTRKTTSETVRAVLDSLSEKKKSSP
From the text: as §1, §2

LOX 3-4 m.149 = target: T4, LOX 3-4 m.149 (artificial (I-CreI derived))
T4 chain: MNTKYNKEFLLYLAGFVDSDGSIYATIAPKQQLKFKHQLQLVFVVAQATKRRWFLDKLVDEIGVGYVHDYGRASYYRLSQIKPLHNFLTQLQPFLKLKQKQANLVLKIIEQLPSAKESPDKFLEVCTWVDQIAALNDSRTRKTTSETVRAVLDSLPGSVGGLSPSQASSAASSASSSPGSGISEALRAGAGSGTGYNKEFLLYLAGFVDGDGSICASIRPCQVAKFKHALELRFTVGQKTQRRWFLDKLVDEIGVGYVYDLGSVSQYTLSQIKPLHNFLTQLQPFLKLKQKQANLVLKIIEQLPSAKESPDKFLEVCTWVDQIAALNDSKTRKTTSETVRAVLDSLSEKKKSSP
From the text: as §1
as §2, with “GTAT” for “GTAG”, “400)” for “390)”

LOX 3-4 m.140 = target: T5, LOX 3-4 m.140 (artificial (I-CreI derived))
T5 chain: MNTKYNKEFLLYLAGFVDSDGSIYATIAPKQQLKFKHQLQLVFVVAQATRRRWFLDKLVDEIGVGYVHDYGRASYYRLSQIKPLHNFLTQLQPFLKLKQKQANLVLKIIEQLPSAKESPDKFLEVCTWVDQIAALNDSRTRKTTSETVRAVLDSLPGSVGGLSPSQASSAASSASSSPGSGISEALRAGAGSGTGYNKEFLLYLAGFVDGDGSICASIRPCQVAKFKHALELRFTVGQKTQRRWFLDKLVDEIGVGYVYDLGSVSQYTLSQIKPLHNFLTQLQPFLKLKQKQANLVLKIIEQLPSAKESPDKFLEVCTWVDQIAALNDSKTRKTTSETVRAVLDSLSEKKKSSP
From the text: as §1
as §2, with “GTAT” for “GTAG”, “400)” for “390)”

LOX 3-4 m.152 = target: T6, LOX 3-4 m.152 (artificial (I-CreI derived))
T6 chain: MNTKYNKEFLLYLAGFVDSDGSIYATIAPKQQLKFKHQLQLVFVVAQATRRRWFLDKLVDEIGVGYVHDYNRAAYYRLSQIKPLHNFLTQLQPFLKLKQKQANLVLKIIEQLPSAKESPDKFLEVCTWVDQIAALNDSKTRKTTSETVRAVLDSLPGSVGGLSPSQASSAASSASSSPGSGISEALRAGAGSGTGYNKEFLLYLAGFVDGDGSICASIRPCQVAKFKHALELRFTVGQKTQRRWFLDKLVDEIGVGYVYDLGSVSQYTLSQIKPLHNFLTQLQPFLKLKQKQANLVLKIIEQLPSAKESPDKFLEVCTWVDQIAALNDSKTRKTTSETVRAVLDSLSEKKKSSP
From the text: as §1
as §2, with “GTAT” for “GTAG”, “400)” for “390)”

LOX 3-4 M.47 = target: T7, LOX 3-4 M.47 (artificial (I-CreI derived))
T7 chain: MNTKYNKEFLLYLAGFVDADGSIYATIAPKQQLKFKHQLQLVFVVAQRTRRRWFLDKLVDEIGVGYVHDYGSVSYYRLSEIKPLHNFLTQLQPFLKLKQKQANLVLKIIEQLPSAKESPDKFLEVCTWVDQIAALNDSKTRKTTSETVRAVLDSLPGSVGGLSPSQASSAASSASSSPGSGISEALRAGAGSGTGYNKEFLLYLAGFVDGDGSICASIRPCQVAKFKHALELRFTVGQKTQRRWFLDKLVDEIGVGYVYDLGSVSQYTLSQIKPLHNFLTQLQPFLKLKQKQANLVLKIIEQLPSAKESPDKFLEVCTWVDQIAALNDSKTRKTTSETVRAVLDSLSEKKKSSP
From the text: as §1
as §2, with “GTGA” for “GTAG”, “434)” for “390)”

LOX 3-4 M.36 = target: T8, LOX 3-4 M.36 (artificial (I-CreI derived))
T8 chain: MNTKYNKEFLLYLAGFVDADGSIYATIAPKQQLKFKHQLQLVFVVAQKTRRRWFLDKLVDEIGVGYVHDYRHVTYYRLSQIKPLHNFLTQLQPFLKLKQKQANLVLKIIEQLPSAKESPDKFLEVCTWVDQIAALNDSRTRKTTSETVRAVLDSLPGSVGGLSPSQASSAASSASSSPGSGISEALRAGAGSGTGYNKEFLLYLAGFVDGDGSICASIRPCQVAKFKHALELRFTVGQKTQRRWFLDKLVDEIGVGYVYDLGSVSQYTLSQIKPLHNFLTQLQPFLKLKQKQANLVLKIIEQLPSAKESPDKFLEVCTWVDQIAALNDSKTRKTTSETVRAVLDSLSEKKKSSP
From the text: as §1
as §2, with “GTGA” for “GTAG”, “434)” for “390)”

LOX 3-4 M.39 = target: T9, LOX 3-4 M.39 (artificial (I-CreI derived))
T9 chain: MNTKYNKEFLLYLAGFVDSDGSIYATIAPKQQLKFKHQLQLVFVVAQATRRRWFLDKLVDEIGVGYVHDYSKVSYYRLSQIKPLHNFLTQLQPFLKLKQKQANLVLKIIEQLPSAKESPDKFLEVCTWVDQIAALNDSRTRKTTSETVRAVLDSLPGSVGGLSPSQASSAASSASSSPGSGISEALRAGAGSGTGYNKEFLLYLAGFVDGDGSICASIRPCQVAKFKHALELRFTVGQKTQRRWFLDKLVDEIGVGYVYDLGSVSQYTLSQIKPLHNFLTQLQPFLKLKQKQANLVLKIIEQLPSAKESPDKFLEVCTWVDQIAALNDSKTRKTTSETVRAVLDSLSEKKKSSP
From the text: as §1
as §2, with “GTGA” for “GTAG”, “434)” for “390)”

B1: LOX 3-4 GTAG (dsDNA)
DNA 1: GTATAGCATGTAGTATACGAAG
DNA 2: CTTCGTATACTACATGCTATAC
Work on B1 yielded an activity (LOX 3-4 m.111) of 17 % GFP, an activity (LOX 3-4 m.97) of 17.2 % GFP and an activity (LOX 3-4 m.108) of 19.7 % GFP.

B2: LOX 3-4 GTAT (dsDNA)
DNA 1: GTATAGCATGTATTATACGAAG
DNA 2: CTTCGTATAATACATGCTATAC
B2 gave an activity (LOX 3-4 m.149) of 12.9 % GFP, an activity (LOX 3-4 m.140) of 13.1 % GFP and an activity (LOX 3-4 m.152) of 4.43 % GFP.

B3: LOX 3-4 GTGA (dsDNA)
DNA 1: GTATAGCATGTGATATACGAAG
DNA 2: CTTCGTATATCACATGCTATAC
For B3, the activity (LOX 3-4 M.47) was 10.1 % GFP, the activity (LOX 3-4 M.36) was 2.75 % GFP and the activity (LOX 3-4 M.39) was 8.66 % GFP.
